Results: PMC3912200, “Structural and Functional Characterization of Cargo-Binding Sites on the μ4-Subunit of Adaptor Protein Complex 4” (PLoS ONE, 2014)

Assays:
[1] = tested on: cytosolic tail of APP; conditions: mutations at μ4-binding site; previously identified; ref [18]; cited from earlier work
Source text: This tyrosine-based signal is related to the YXXØ motif, which is the signal contained in the cytosolic tail of transmembrane proteins that binds to a different site on the μ2 subunit of AP-2 [28], or on the μ3A subunit of AP-3 [30]. In this study, we wanted to determine whether this putative second binding site on μ4, referred here as the μ2-binding site (Figure 1, A and B), played any role in the binding to the YKFFE signal of APP ...

[2] = tested on: APP-GFP; experiment: Distribution of APP-GFP in MDA-MB-231 cells; type: cell-based, human; conditions: for change in distribution of APP: HA-epitope-tagged constructs, 24 h after transfection, EEA1/TGN46 immunofluorescence; for APP redistribution (figure title): APP-GFP F615P/D664A, EEA1, TGN46 staining
Description: H4 human neuroglioma or MDA-MB-231 human mammary gland epithelial cells obtained from the American Type Culture Collection (Manassas, VA) were maintained in DMEM (H4) or DMEM/F12 (MDA-MB-231) supplemented with 10% (v/v) fetal bovine serum (FBS), 100 U/ml penicillin and 100 µg/ml streptomycin (Life Technologies). Transfections were carried out using Lipofectamine 2000 (Life Technologies) for 1 h at 37°C in the absence of FBS, and cells were analyzed 16, 24 or up to 36-h after transfection, for which we observed no notorious signs of loss in cell viability. SDS-PAGE, immunoblotting, and immunoprecipitation were performed as described. H4 cells after 16 h of transfection were washed twice with cold phosphate buffered saline supplemented with 0.1 mM CaCl2 and 1 mM MgCl2 (PBS-Ca/Mg), and incubated at 4°C for 1 h in lysis buffer (50 mM Tris-HCl pH 7.4, 150 mM NaCl, 1 mM EDTA, 1% (v/v) Triton X-100, and a cocktail of protease inhibitors). Soluble extracts were subjected to overnight immunoprecipitation at 4°C either with rabbit anti-HA-epitope antibody (kindly provided by R. Hegde, MRC Laboratory of Molecular Biology, Cambridge, UK) or with mouse antibody to the ε subunit of AP-4 (BD Biosciences) immobilized onto protein A- or a 1∶1 mix of protein A- and protein-G Sepharose beads (GE Healthcare), respectively. Soluble extracts and immunoprecipitates were processed by SDS-PAGE and blotted with horseradish peroxidase-conjugated mouse anti-HA antibody (Macs Miltenyi Biotec) or with mouse antibody to the ε subunit of AP-4.
Indirect immunofluorescence staining of fixed, permeabilized cells was performed as previously described, using sheep polyclonal antibody anti-TGN46 (Serotec), and mouse monoclonal antibody anti-EEA1 (BD Biosciences) or rabbit polyclonal antibody anti-EEA1 (Santa Cruz Biotechnology), followed by the secondary antibodies Alexa-647–conjugated donkey anti-mouse IgG, Alexa-594–conjugated donkey anti-rabbit IgG, or Alexa-594– or -647–conjugated donkey anti-sheep IgG (Life Technologies). Images were acquired either with an Olympus FluoView FV1000 scanning unit fitted on an inverted Olympus IX81 microscope and equipped with a PlanApo 60x oil immersion objective (NA 1.40; Olympus, Melville, NY), using similar settings as described previously, or with an AxioObserver.D1 microscope equipped with a PlanApo 63x oil immersion objective (NA 1.4), and an AxioCam MRm digital camera (Carl Zeiss). Quantitative analysis of colocalization was performed as we previously described, with minor modifications. Briefly, 12-bit images were acquired under identical settings avoiding signal saturation, and corrected for noise, cross-talk, and background signals on each set of images. The signals of TGN46 or EEA1 in each set of images were used in Image J (version 1.44o; Wayne Rasband, NIH, http://imagej.nih.gov) to define masks regarded as Golgi/TGN or early endosomes localization, respectively. The percentage of localization in each compartment was calculated for each cell (n = 10–15) subtracting either the Golgi/TGN or the early endosomes mask from the total integrated pixel intensity of APP-GFP, and the remainder of the signal was considered as in the ‘rest of the cell’.
We next examined the functional role of both the μ2- and the μ4-binding site of μ4 on the intracellular trafficking of APP. We have shown that the YKFFE-μ4 interaction is functional in vivo because its disruption by depletion of μ4 by RNAi produces a shift in the distribution of APP from endosomes to the TGN [18]. To evaluate now the function of each binding site for tyrosine-based signals, we tested a dominant-negative effect by overexpressing untagged or HA-epitope-tagged full-length wild-type μ4 or the variants untagged or HA-epitope-tagged μ4-D190A, μ4-D190S, μ4-F255A or μ4-R283D in H4 neuroglioma cells, as well as in MDA-MB-231 mammary gland epithelial cells, and examined by immunofluorescence the distribution of APP-GFP. […]

| Molecule | change in distribution of APP [2] | APP redistribution (figure title) ([2]; 24 h) | also measured |
| --- | --- | --- | --- |
| H256A: μ4 mutant, μ4-binding site, reported previously (protein, UniProt O00189 1-453, looked up, variant H256A) AP-4 complex subunit mu-1: MISQFFILSSKGDPLIYKDFRGDSGGRDVAELFYRKLTGLPGDESPVVMHHHGRHFIHIRHSGLYLVVTTSENVSPFSLLELLSRLATLLGDYCGSLGEGTISRNVALVYELLDEVLDYGYVQTTSTEMLRNFIQTEAVVSKPFSLFDLSSVGLFGAETQQSKVAPSSAASRPVLSSRSDQSQKNEVFLDVVERLSVLIASNGSLLKVDVQGEIRLKSFLPSGSEMRIGLTEEFCVGKSELRGYGPGIRVDEVSFASSVNLDEFESHRILRLQPPQGELTVMRYQLSDDLPSPLPFRLFPSVQWDRGSGRLQVYLKLRCDLLSKSQALNVRLHLPLPRGVVSLSQELSSPEQKAELAEGALRWDLPRVQGGSQLSGLFQMDVPGPPGPPSHGLSTSASPLGLGPASLSFELPRHTCSGLQVRFLRLAFRPCGNANPHKWVRHLSHSDAYVIRI | – | – | effect of mutation on binding to the APP YKFFE signal [1]: null effect |
| µ4-HA: HA-epitope-tagged full-length wild-type μ4, overexpressed (protein, left off: HA, end not stated, kept) MISQFFILSSKGDPLIYKDFRGDSGGRDVAELFYRKLTGLPGDESPVVMHHHGRHFIHIRHSGLYLVVTTSENVSPFSLLELLSRLATLLGDYCGSLGEGTISRNVALVYELLDEVLDYGYVQTTSTEMLRNFIQTEAVVSKPFSLFDLSSVGLFGAETQQSKVAPSSAASRPVLSSRSDQSQKNEVFLDVVERLSVLIASNGSLLKVDVQGEIRLKSFLPSGSEMRIGLTEEFCVGKSELRGYGPGIRVDEVSFHSSVNLDEFESHRILRLQPPQGELTVMRYQLSDDLPSPLPFRLFPSVQWDRGSGRLQVYLKLRCDLLSKSQALNVRLHLPLPRGVVSLSQELSSPEQKAELAEGALRWDLPRVQGGSQLSGLFQMDVPGPPGPPSHGLSTSASPLGLGPASLSFELPRHTCSGLQVRFLRLAFRPCGNANPHKWVRHLSHSDAYVIRI | no apparent change in the distribution of APP | – | – |
| µ4-F255A-HA: HA-epitope-tagged full-length μ4-F255A, overexpressed (protein, left off: HA, end not stated, kept) MISQFFILSSKGDPLIYKDFRGDSGGRDVAELFYRKLTGLPGDESPVVMHHHGRHFIHIRHSGLYLVVTTSENVSPFSLLELLSRLATLLGDYCGSLGEGTISRNVALVYELLDEVLDYGYVQTTSTEMLRNFIQTEAVVSKPFSLFDLSSVGLFGAETQQSKVAPSSAASRPVLSSRSDQSQKNEVFLDVVERLSVLIASNGSLLKVDVQGEIRLKSFLPSGSEMRIGLTEEFCVGKSELRGYGPGIRVDEVSAHSSVNLDEFESHRILRLQPPQGELTVMRYQLSDDLPSPLPFRLFPSVQWDRGSGRLQVYLKLRCDLLSKSQALNVRLHLPLPRGVVSLSQELSSPEQKAELAEGALRWDLPRVQGGSQLSGLFQMDVPGPPGPPSHGLSTSASPLGLGPASLSFELPRHTCSGLQVRFLRLAFRPCGNANPHKWVRHLSHSDAYVIRI | strong redistribution of APP from endosomes to the TGN | APP redistributes from endosomes to the TGN | – |
| µ4-R283D-HA: HA-epitope-tagged full-length μ4-R283D, overexpressed (protein, left off: HA, end not stated, kept) MISQFFILSSKGDPLIYKDFRGDSGGRDVAELFYRKLTGLPGDESPVVMHHHGRHFIHIRHSGLYLVVTTSENVSPFSLLELLSRLATLLGDYCGSLGEGTISRNVALVYELLDEVLDYGYVQTTSTEMLRNFIQTEAVVSKPFSLFDLSSVGLFGAETQQSKVAPSSAASRPVLSSRSDQSQKNEVFLDVVERLSVLIASNGSLLKVDVQGEIRLKSFLPSGSEMRIGLTEEFCVGKSELRGYGPGIRVDEVSFHSSVNLDEFESHRILRLQPPQGELTVMDYQLSDDLPSPLPFRLFPSVQWDRGSGRLQVYLKLRCDLLSKSQALNVRLHLPLPRGVVSLSQELSSPEQKAELAEGALRWDLPRVQGGSQLSGLFQMDVPGPPGPPSHGLSTSASPLGLGPASLSFELPRHTCSGLQVRFLRLAFRPCGNANPHKWVRHLSHSDAYVIRI | strong redistribution of APP from endosomes to the TGN | APP redistributes from endosomes to the TGN | – |
| µ4-D190A-HA: HA-epitope-tagged full-length μ4-D190A, overexpressed (protein, left off: HA, end not stated, kept) MISQFFILSSKGDPLIYKDFRGDSGGRDVAELFYRKLTGLPGDESPVVMHHHGRHFIHIRHSGLYLVVTTSENVSPFSLLELLSRLATLLGDYCGSLGEGTISRNVALVYELLDEVLDYGYVQTTSTEMLRNFIQTEAVVSKPFSLFDLSSVGLFGAETQQSKVAPSSAASRPVLSSRSDQSQKNEVFLAVVERLSVLIASNGSLLKVDVQGEIRLKSFLPSGSEMRIGLTEEFCVGKSELRGYGPGIRVDEVSFHSSVNLDEFESHRILRLQPPQGELTVMRYQLSDDLPSPLPFRLFPSVQWDRGSGRLQVYLKLRCDLLSKSQALNVRLHLPLPRGVVSLSQELSSPEQKAELAEGALRWDLPRVQGGSQLSGLFQMDVPGPPGPPSHGLSTSASPLGLGPASLSFELPRHTCSGLQVRFLRLAFRPCGNANPHKWVRHLSHSDAYVIRI | minor redistribution of APP to the TGN | – | – |
| μ4-D190S: D190S mutant of μ4 (C-terminal domain in vitro; full-length, HA-tagged or untagged, in cells) (protein, left off: GST, N-terminal, cleaved) QQSKVAPSSAASRPVLSSRSDQSQKNEVFLSVVERLSVLIASNGSLLKVDVQGEIRLKSFLPSGSEMRIGLTEEFCVGKSELRGYGPGIRVDEVSFHSSVNLDEFESHRILRLQPPQGELTVMRYQLSDDLPSPLPFRLFPSVQWDRGSGRLQVYLKLRCDLLSKSQALNVRLHLPLPRGVVSLSQELSSPEQKAELAEGALRWDLPRVQGGSQLSGLFQMDVPGPPGPPSHGLSTSASPLGLGPASLSFELPRHTCSGLQVRFLRLAFRPCGNANPHKWVRHLSHSDAYVIRI | – | – | effect on localization of APP-GFP in endosomes ([2]; either HA-epitope-tagged or untagged, 24 h): little or no effect |
| μ4-R283D: μ4 with the single mutation R283D at the μ4-binding site (C-terminal domain; untagged full-length in b45) (protein, left off: GST, N-terminal, cleaved) QQSKVAPSSAASRPVLSSRSDQSQKNEVFLDVVERLSVLIASNGSLLKVDVQGEIRLKSFLPSGSEMRIGLTEEFCVGKSELRGYGPGIRVDEVSFHSSVNLDEFESHRILRLQPPQGELTVMDYQLSDDLPSPLPFRLFPSVQWDRGSGRLQVYLKLRCDLLSKSQALNVRLHLPLPRGVVSLSQELSSPEQKAELAEGALRWDLPRVQGGSQLSGLFQMDVPGPPGPPSHGLSTSASPLGLGPASLSFELPRHTCSGLQVRFLRLAFRPCGNANPHKWVRHLSHSDAYVIRI | – | APP redistributes from endosomes to the TGN | – |
